Assay results as given in paper PMC5705213, “Immunoproteasome functions explained by divergence in cleavage specificity and regulation” (eLife, 2017).

Assays:
Format in all cases: biochemical, human
[1] = substrate: Cc1cc(C(=O)N[C@H](C(=O)N[C@@H](CCC(N)=O)C(=O)N[C@@H](C)C(=O)Nc2ccc3c(CC(N)=O)cc(=O)oc3c2)C(C)C)no1; test: Purified proteasome activity assay with fluorogenic substrates, SDS-activated i20S; conditions: other: i20S, Michaelis-Menten; pH 8.0
Procedure: (§1) Non-prime-side substrate specificity profiling was performed with a complete, diverse library of 160,000 fluorogenic substrates containing the general structure acetyl-P4-P3-P2-P1-(7-amino-4-carbamoylmethylcourmarin, ACC) ([Harris et al., 2000]). For each sub-library, 10 nM human i20S or c20S underwent SDS pre-activation for 1 hr at room temperature in assay buffer (20 mM Tris, pH 8.0, 0.5 mM EDTA) containing 0.03% SDS. […] Activity assays were carried out over 1 hr following two-fold sample dilution in the same 0.03% SDS-containing buffer that also contained a 250 μM final concentration of PS-SCL substrate pool. Activity was recorded in black 96-well round bottom plates (Costar, COrning, NY) using a BioTek Synergy H4 Hybrid Multi-Mode Microplate Reader set to λex = 380 nm and λem = 460 nm (gain = 63). Initial velocity in relative fluorescence units per second (RFU/s) was calculated using a linear fit of the progress curves with Gen5 software v.2.03.
(§2) Activity assays with individual fluorogenic substrates were carried out as described above for the PS-SCL assays using final concentrations of 5 nM SDS-activated i20S or c20S and 10 μM substrate except where noted below. The commercial substrates Suc-LLVY-AMC, Ac-WLA-AMC (Boston Biochem, S-330), and Ac-ANW-AMC (Boston Biochem, S-320) were used as supplied. To convert cleaved substrate RFU to free AMC or ACC dye concentration, calibration curves were prepared through total enzymatic hydrolysis of ACC- or AMC-containing peptides that had been quantified through amino acid analysis (Alphalyse, Inc.). Substrate selectivity of PA28α- and SDS-activated 20S proteasomes was compared following 1 hr pre-incubation at room temperature either in the presence of 0.03% SDS or with 12 molar equivalents of PA28α activator in the absence of SDS. For substrate selectivity assays with mixed, purified proteasomes, i20S and c20S underwent individual SDS pre-activation prior to assaying with 5 nM final concentration of pooled 20S. Proteasome ratio assays were performed with 10 μM EWFW-ACC, 30 μM iso-VQA-ACC, and 30 μM Suc-LLVY-AMC. All activity measurements were recorded on the BioTek plate reader described above using λex = 380 nm and λem = 460 nm (gain = 63) for ACC substrates and Suc-LLVY-AMC; 345 nm and λem = 445 nm (gain = 63) for Ac-WLA-AMC and Ac-ANW-AMC; and λex = 328 nm and λem = 393 nm (gain = 75) for the GEWHWPS IQ substrate. Michaelis-Menten calculations were performed using a non-linear fit in Prism v.6.0.

[2] = substrate: CC(=O)N[C@@H](C)C(=O)N[C@@H](CC(N)=O)C(=O)N[C@@H](Cc1c[nH]c2ccccc12)C(=O)Nc1ccc2c(C)cc(=O)oc2c1; test: as above; conditions: other: i20S, Michaelis-Menten; pH 8.0
Procedure: as §1, §2

[3] = substrate: Cc1cc(=O)oc2cc(NC(=O)[C@H](Cc3ccc(O)cc3)NC(=O)[C@@H](NC(=O)[C@H](CC(C)C)NC(=O)[C@H](CC(C)C)NC(=O)CCC(=O)O)C(C)C)ccc12; test: as above; conditions: other: Michaelis-Menten plot, commercial substrate; pH 8.0
Procedure: as §1, §2

[4] = substrate: NC(=O)Cc1cc(=O)oc2cc(NC(=O)[C@H](Cc3c[nH]c4ccccc34)NC(=O)[C@H](Cc3ccccc3)NC(=O)[C@H](Cc3c[nH]c4ccccc34)NC(=O)[C@@H](N)CCC(=O)O)ccc12; test: as above; conditions: other: i20S, Michaelis-Menten; pH 8.0
Procedure: as §1, §2

[5] = substrate: NC(=O)Cc1cc(=O)oc2cc(NC(=O)[C@H](Cc3c[nH]c4ccccc34)NC(=O)[C@H](Cc3c[nH]cn3)NC(=O)[C@H](Cc3c[nH]c4ccccc34)NC(=O)[C@@H](N)CCC(=O)O)ccc12; test: as above; conditions: other: i20S, Michaelis-Menten; pH 8.0
Procedure: as §1, §2

[6] = substrate: Cc1cc(C(=O)N[C@H](C(=O)N[C@@H](CCC(N)=O)C(=O)N[C@@H](C)C(=O)Nc2ccc3c(CC(N)=O)cc(=O)oc3c2)C(C)C)no1; test: Purified proteasome activity assay with fluorogenic substrates, SDS-activated c20S; conditions: other: c20S, Michaelis-Menten; pH 8.0
Procedure: as §1, §2

[7] = substrate: CC(=O)N[C@@H](C)C(=O)N[C@@H](CC(N)=O)C(=O)N[C@@H](Cc1c[nH]c2ccccc12)C(=O)Nc1ccc2c(C)cc(=O)oc2c1; test: as above; conditions: other: c20S, Michaelis-Menten; pH 8.0
Procedure: as §1, §2

[8] = substrate: Cc1cc(=O)oc2cc(NC(=O)[C@H](Cc3ccc(O)cc3)NC(=O)[C@@H](NC(=O)[C@H](CC(C)C)NC(=O)[C@H](CC(C)C)NC(=O)CCC(=O)O)C(C)C)ccc12; test: as above; conditions: other: Michaelis-Menten plot, commercial substrate; pH 8.0
Procedure: as §1, §2

[9] = substrate: NC(=O)Cc1cc(=O)oc2cc(NC(=O)[C@H](Cc3c[nH]c4ccccc34)NC(=O)[C@H](Cc3ccccc3)NC(=O)[C@H](Cc3c[nH]c4ccccc34)NC(=O)[C@@H](N)CCC(=O)O)ccc12; test: as above; conditions: other: c20S, Michaelis-Menten; pH 8.0
Procedure: as §1, §2

[10] = substrate: NC(=O)Cc1cc(=O)oc2cc(NC(=O)[C@H](Cc3c[nH]c4ccccc34)NC(=O)[C@H](Cc3c[nH]cn3)NC(=O)[C@H](Cc3c[nH]c4ccccc34)NC(=O)[C@@H](N)CCC(=O)O)ccc12; test: as above; conditions: other: c20S, Michaelis-Menten; pH 8.0
Procedure: as §1, §2

B1: human immunoproteasome core particle (i20S) (Homo sapiens) (protein)
chain 1: TTTLAFKFQHGVIAAVDSRASAGSYISALRVNKVIEINPYLLGTMSGCAADCQYWERLLAKECRLYYLRNGERISVSAASKLLSNMMCQYRGMGLSMGSMICGWDKKGPGLYYVDEHGTRLSGNMFSTGSGNTYAYGVMDSGYRPNLSPEEAYDLGRRAIAYATHRDSYSGGVVNMYHMKEDGWVKVESTDVSDLLHQYREANQ
chain 2: RFSPYVFNGGTILAIAGEDFAIVASDTRLSEGFSIHTRDSPKCYKLTDKTVIGCSGFHGDCLTLTKIIEARLKMYKHSNNKAMTTGAIAAMLSTILYSRRFFPYYVYNIIGGLDEEGKGAVYSFDPVGSYQRDSFKAGGSASAMLQPLLDNQVGFKNMQNVEHVPLSLDRAMRLVKDVFISAAERDVYTGDALRICIVTKEGIREETVSLRKD
notes: purchased Boston Biochem E-370
For B1, the Km [1] was 43 µM, the kcat [1] was 0.65 s⁻¹ and the kcat/Km [1] was 15000 M⁻¹ s⁻¹. The Km [2] was 20 µM, the kcat [2] was 1.2 s⁻¹ and the kcat/Km [2] was 58000 M⁻¹ s⁻¹. The Km [3] was 98.6 µM, the Km [4] was 7.0 µM and the kcat [4] was 4.8 s⁻¹. For the same protein, the kcat/Km [4] was 690000 M⁻¹ s⁻¹, the Km [5] was 52 µM and the kcat [5] was 6.8 s⁻¹. The kcat/Km [5] was 130000 M⁻¹ s⁻¹.

B2: constitutive proteasome core particle (c20S) (Homo sapiens) (protein)
chain 1: TTTLAFKFRHGVIVAADSRATAGAYIASQTVKKVIEINPYLLGTMAGGAADCSFWERLLARQCRIYELRNKERISVAAASKLLANMVYQYKGMGLSMGTMICGWDKRGPGLYYVDSEGNRISGATFSVGSGSVYAYGVMDRGYSYDLEVEQAYDLARRAIYQATYRDAYSGGAVNLYHVREDGWIRVSSDNVADLHEKYSGSTP
chain 2: RFSPYVFNGGTILAIAGEDFAIVASDTRLSEGFSIHTRDSPKCYKLTDKTVIGCSGFHGDCLTLTKIIEARLKMYKHSNNKAMTTGAIAAMLSTILYSRRFFPYYVYNIIGGLDEEGKGAVYSFDPVGSYQRDSFKAGGSASAMLQPLLDNQVGFKNMQNVEHVPLSLDRAMRLVKDVFISAAERDVYTGDALRICIVTKEGIREETVSLRKD
notes: purchased Boston Biochem E-360
With B2 the Km [6] was 51 µM, the kcat [6] was 2.3 s⁻¹ and the kcat/Km [6] was 45000 M⁻¹ s⁻¹. For the same protein, the Km [7] was 9.8 µM, the kcat [7] was 0.1 s⁻¹ and the kcat/Km [7] was 10000 M⁻¹ s⁻¹. For the same protein, the Km [8] was 65.7 µM, the Km [9] was 1.8 µM and the kcat [9] was 0.31 s⁻¹. For the same protein, the kcat/Km [9] was 170000 M⁻¹ s⁻¹, the Km [10] was 73 µM and the kcat [10] was 1.1 s⁻¹. The kcat/Km [10] was 15000 M⁻¹ s⁻¹.
